Assay results published in patent US20120093830A1 (published 2012).
Where a chain is given by its changes, count along the chain named. Values joined by “and” are separate entries in the source; they are usually repeats but may differ in a detail not shown here. Identical values can stand only once.

What was measured:
[1] = target: T1, human IL-13 (human, UniProt P35225 35-146); test: IL-13 sandwich ELISA (IL-13 binding to the capture antibody inhibited); block 2; sample #15 (4.7 mg/mL, 25 mM sodium phosphate pH 7.5, 7% PEG1000, 1.2% sucrose), material remaining in the cup after E-flow vibrating mesh nebuliser
T1 construct: also called hIL-13; interleukin-13
Protocol: (§1) The plate was then incubated with TMB substrate (KPL, Gaithersburg, USA), and the reaction was stopped by the addition of HCl and the absorbance read at 450 nm.
(§2) Nebulisation was performed for approximately 3 minutes. 100 uL of protein samples (diluted to 1 mg/mL) were injected onto the SEC (TSKgel G2000SWXL, Tosoh Biosciences, Germany) column. The protein separation on SEC was performed at 0.5 mL/min for 45 minutes. PBS (phosphate buffered saline)+10% EtOH was used as mobile phase. The detection of eluting proteinaceous material was carried by on-line detection by UV (Abs 280 nm & 215 nm). […] The optimum MMAD is 3 μm and for deep lung delivery the desirable respirable fraction is the highest percentage of particles <5 μm. The LC+ (Pari) Jet nebuliser gives the better MMAD: MMAD values are lower when the buffer contains PEG; MMAD decreases as protein concentration increases.

[2] = target: T1, human IL-13; test: IL-13 sandwich ELISA (IL-13 binding to the capture antibody inhibited); block 4; sample #16 (2.6 mg/mL in PBS), material remaining in the cup after LC+ jet nebuliser
Protocol: as §1, §2

[3] = target: T1, human IL-13; test: IL-13 sandwich ELISA (IL-13 binding to the capture antibody inhibited); block 1; sample #14 (2.3 mg/ml, 25 mM sodium phosphate pH 7.5, 7% PEG1000, 1.2% sucrose), material remaining in the cup after LC+ jet nebuliser
Protocol: as §1, §2

[4] = target: T1, human IL-13; test: IL-13 sandwich ELISA (IL-13 binding to the capture antibody inhibited); block 2; sample #14 (2.3 mg/ml, 25 mM sodium phosphate pH 7.5, 7% PEG1000, 1.2% sucrose), aerosolised material after LC+ jet nebuliser
Protocol: as §1, §2

[5] = target: T1, human IL-13; test: IL-13 sandwich ELISA (IL-13 binding to the capture antibody inhibited); block 1; sample #14 (2.3 mg/ml, 25 mM sodium phosphate pH 7.5, 7% PEG1000, 1.2% sucrose), aerosolised material after E-flow vibrating mesh nebuliser
Protocol: as §1, §2

[6] = target: T1, human IL-13; test: IL-13 sandwich ELISA (IL-13 binding to the capture antibody inhibited); block 4; sample #16 (2.6 mg/mL in PBS), aerosolised material after LC+ jet nebuliser
Protocol: as §1, §2

[7] = target: T1, human IL-13; test: IL-13 sandwich ELISA (IL-13 binding to the capture antibody inhibited); block 4; sample #16 (2.6 mg/mL in PBS), aerosolised material after E-flow vibrating mesh nebuliser
Protocol: as §1, §2

[8] = target: T1, human IL-13; test: IL-13 sandwich ELISA (IL-13 binding to the capture antibody inhibited); block 3; sample #15 (4.7 mg/mL, 25 mM sodium phosphate pH 7.5, 7% PEG1000, 1.2% sucrose), material remaining in the cup after LC+ jet nebuliser
Protocol: as §1, §2

[9] = target: T1, human IL-13; test: IL-13 sandwich ELISA (IL-13 binding to the capture antibody inhibited); block 2; sample #15 (4.7 mg/mL, 25 mM sodium phosphate pH 7.5, 7% PEG1000, 1.2% sucrose), aerosolised material after E-flow vibrating mesh nebuliser
Protocol: as §1, §2

[10] = target: T1, human IL-13; test: IL-13 sandwich ELISA: dAb dilution series mixed with IL-13, binding of IL-13 to the coating (capture) antibody detected; block 3 of the table, sample not nebulised
Protocol: as §1, §2

[11] = target: cynomolgus IL-13 (cynomolgus, UniProt Q0PW92 21-132); test: cell-based or functional assay
[12] = target: T1, human IL-13; test: cell-based or functional assay
[13] = target: T1, human IL-13; test: IL-13 sandwich ELISA (IL-13 binding to the capture antibody inhibited); block 3; sample #15 (4.7 mg/mL, 25 mM sodium phosphate pH 7.5, 7% PEG1000, 1.2% sucrose), aerosolised material after LC+ jet nebuliser
Protocol: as §1, §2

[14] = target: T1, human IL-13; test: IL-13 sandwich ELISA: dAb dilution series mixed with IL-13, binding of IL-13 to the coating (capture) antibody detected; block 4 of the table, sample not nebulised
Protocol: as §1, §2

[15] = target: T1, human IL-13; test: IL-13 sandwich ELISA: dAb dilution series mixed with IL-13, binding of IL-13 to the coating (capture) antibody detected; block 2 of the table, sample not nebulised
Protocol: as §1, §2

[16] = target: T1, human IL-13; test: IL-13 sandwich ELISA (IL-13 binding to the capture antibody inhibited); block 3; sample #16 (2.6 mg/mL in PBS), material remaining in the cup after E-flow vibrating mesh nebuliser
Protocol: as §1, §2

[17] = target: T1, human IL-13; test: IL-13 sandwich ELISA: dAb dilution series mixed with IL-13, binding of IL-13 to the coating (capture) antibody detected; block 1 of the table, sample not nebulised
Protocol: as §1, §2

[18] = target: T1, human IL-13; test: IL-13 sandwich ELISA: dAb dilution series mixed with IL-13, binding of IL-13 to the coating (capture) antibody detected; block 2 of the table, standard
[19] = target: T1, human IL-13; test: IL-13 sandwich ELISA: dAb dilution series mixed with IL-13, binding of IL-13 to the coating (capture) antibody detected; block 4 of the table, standard
[20] = target: T1, human IL-13; test: IL-13 sandwich ELISA: dAb dilution series mixed with IL-13, binding of IL-13 to the coating (capture) antibody detected; block 3 of the table, standard
[21] = target: T1, human IL-13; test: IL-13 sandwich ELISA: dAb dilution series mixed with IL-13, binding of IL-13 to the coating (capture) antibody detected; block 1 of the table, standard

T1 sequence (P35225 35-146 limits assumed): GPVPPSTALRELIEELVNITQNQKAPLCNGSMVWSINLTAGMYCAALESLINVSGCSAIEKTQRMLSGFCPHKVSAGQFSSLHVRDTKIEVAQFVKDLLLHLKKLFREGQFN
Chain of cynomolgus IL-13 (Q0PW92 entry or part of it): as the sequence (P35225 35-146 limits assumed) above, with G1S, R10K, M42V, S67N, H83R, L100V counted along it

B1: DOM10-53-474 (single domain antibody (dAb), V domains shown)
VH: GVQLLESGGGLVQPGGSLRLSCAASGFTFAWYDMGWVRQAPGKGLEWVSSIDWHGEVTYYADSVKGRFTISRDNSKNTLYLQMNSLRAEDTAVYYCATAEDEPGYDYWGQGTLVTVSS
notes: Soluble anti-IL-13 domain antibody monomer (immunoglobulin single variable domain); also called anti-IL-13 dAb
- IC50 [1]: 21.4 pM
- IC50 [2]: 33.9 pM
- IC50 [3]: 31.7 pM
- IC50 [4]: 34.8 pM
- IC50 [5]: 32.2 pM
- IC50 [6]: 23 pM
- IC50 [7]: 35.1 pM
- IC50 [8]: 12.8 pM
- IC50 [9]: 18.5 pM
- IC50 [10]: 28.9 pM
- EC50, FIG. 1B: inhibition of cynomolgus IL-13 (3 ng/ml) stimulated alkaline phosphatase production in HEK STAT6 cells [11]: 10800 pM
- EC50, FIG. 1A: inhibition of human IL-13 (3 ng/ml) stimulated alkaline phosphatase production in HEK STAT6 cells [12]: 720 pM
- IC50 [13]: 14.9 pM
- IC50 [14]: 26.9 pM
- IC50 [15]: 35.6 pM
- IC50 [16]: 22.4 pM
- IC50 [17]: 45.8 pM

B2: DOM10-53-344 (Std) (single domain antibody (dAb), V domains shown)
VH: B1 VH with T28I
- IC50 [18]: 125 pM
- IC50 [19]: 67.1 pM
- IC50 [20]: 45.5 pM
- IC50 [21]: 71.6 pM

B3: DOM10-275-78 (single domain antibody (dAb), V domains shown)
VH: EVQLLESGGGLVQPGGSLRLSCVASGFTFDVAEMDWVRQAPGKGLEWVSTISPSRRGTYYADSVKGRFTISRDNSKNTLYLQMNSLRAEDTAVYYCAKAYTGRSLWGPGTLVTVSS
- EC50, FIG. 1B: inhibition of cynomolgus IL-13 (3 ng/ml) stimulated alkaline phosphatase production in HEK STAT6 cells [11]: 1370 pM
- EC50, FIG. 1A: inhibition of human IL-13 (3 ng/ml) stimulated alkaline phosphatase production in HEK STAT6 cells [12]: 2420 pM and 2640 pM
